Measurements from patent publication US20060257938A1, “Method of screening for drugs that block ligand binding to a lipid binding protein” (priority 2005, published 2006).
Numbering of substitutions follows the chain as printed. Values joined by “and” are separate entries in the source; they are usually repeats but may differ in a detail not shown here. Equal values may be shown once.

B1: 31Q3, 72A (protein, listed as Rattus norvegicus)
chain: AFDGTWKVDRNENYEKFMEKMGINVVKRKLQAHDNLKLTITQEGNKFTVKESSNFRNIDVVFELGVDFAYSAADGTELTGTWTMEGNKLVGKFKRVDNGKELIAVREISGNELIQTYTYEGVEAKRIFKKE
modifications: PEPTIDE (1)...(131) wild-type rat intestinal fatty acid binding protein
B2: 31R1, 72A (protein, listed as Rattus norvegicus)
chain: B1 chain with Q31R
modifications: PEPTIDE (1)...(131) wild-type rat intestinal fatty acid binding protein
B3: 31T2, 72A (protein, listed as Rattus norvegicus)
chain: B1 chain with Q31T
modifications: PEPTIDE (1)...(131) wild-type rat intestinal fatty acid binding protein
B4: 31V2, 72A (protein, listed as Rattus norvegicus)
chain: B1 chain with Q31V
modifications: PEPTIDE (1)...(131) wild-type rat intestinal fatty acid binding protein
B5: 31W2, 72A (protein, listed as Rattus norvegicus)
chain: B1 chain with Q31W
modifications: PEPTIDE (1)...(131) wild-type rat intestinal fatty acid binding protein
B6: 31Y1, 72A (protein, listed as Rattus norvegicus)
chain: B1 chain with Q31Y
modifications: PEPTIDE (1)...(131) wild-type rat intestinal fatty acid binding protein
B7: 31Y2, 72A (protein, listed as Rattus norvegicus)
chain: B1 chain with Q31Y
modifications: PEPTIDE (1)...(131) wild-type rat intestinal fatty acid binding protein
B8: 34A, 72A (protein, listed as Rattus norvegicus)
chain: B1 chain with Q31G, D34A
modifications: PEPTIDE (1)...(131) wild-type rat intestinal fatty acid binding protein
B9: 34C, 72A (protein, listed as Rattus norvegicus)
chain: B1 chain with Q31G, D34C
modifications: PEPTIDE (1)...(131) wild-type rat intestinal fatty acid binding protein
B10: 34E, 72A (protein, listed as Rattus norvegicus)
chain: B1 chain with Q31G, D34E
modifications: PEPTIDE (1)...(131) wild-type rat intestinal fatty acid binding protein
B11: 34G, 72A (protein, listed as Rattus norvegicus)
chain: B1 chain with Q31G, D34G
modifications: PEPTIDE (1)...(131) wild-type rat intestinal fatty acid binding protein
B12: 34H, 72A (protein, listed as Rattus norvegicus)
chain: B1 chain with Q31G, D34H
modifications: PEPTIDE (1)...(131) wild-type rat intestinal fatty acid binding protein
B13: 34K, 72A (protein, listed as Rattus norvegicus)
chain: B1 chain with Q31G, D34K
modifications: PEPTIDE (1)...(131) wild-type rat intestinal fatty acid binding protein
B14: 34N, 72A (protein, listed as Rattus norvegicus)
chain: B1 chain with Q31G, D34N
modifications: PEPTIDE (1)...(131) wild-type rat intestinal fatty acid binding protein
B15: 34P, 72A (protein, listed as Rattus norvegicus)
chain: B1 chain with Q31G, D34P
modifications: PEPTIDE (1)...(131) wild-type rat intestinal fatty acid binding protein
B16: 34Q, 72A (protein, listed as Rattus norvegicus)
chain: B1 chain with Q31G, D34Q
modifications: PEPTIDE (1)...(131) wild-type rat intestinal fatty acid binding protein
B17: 34R, 72A (protein, listed as Rattus norvegicus)
chain: B1 chain with Q31G, D34R
modifications: PEPTIDE (1)...(131) wild-type rat intestinal fatty acid binding protein

Assay: Probe fluorescence ratio response to arachidonic acid relative to ADIFAB2
Assay type: binding
Settings: arachidonic acid; response relative to ADIFAB2
How it was run: (§1)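 Each fatty acid's response was expressed relative to ADIFAB2, the rI-FABP-L72A probe, as ΔR/ΔRreference. ΔR is the change in the background-corrected two-wavelength intensity ratio R=Fλ1/Fλ2 from its analyte-free baseline R0. Emission was read near about 420-480 nm for unbound and about 495-580 nm for FFA-bound probe.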

| Molecule | DR/DR AA |
| --- | --- |
| B1 | 1.02 |
| B2 | 0.25 |
| B3 | 0.65 |
| B4 | 0.40 |
| B5 | 0.99 |
| B6 | 1.78 |
| B7 | 0.37 |
| B8 | 0.58 |
| B9 | 0.34 |
| B10 | 0.62 and 0.618 |
| B11 | 0.54 |
| B12 | 0.65 |
| B13 | 0.43 |
| B14 | 1.19 |
| B15 | 0.46 |
| B16 | 0.52 |
| B17 | 0.41 |

Assay: Probe fluorescence ratio response to linolenic acid relative to ADIFAB2
Assay type: binding
Settings: response relative to ADIFAB2
How it was run: as §1

| Molecule | DR/DR LNA |
| --- | --- |
| B1 | 1.49 |
| B2 | 0.44 |
| B3 | 0.91 |
| B4 | 0.78 |
| B5 | 1.03 |
| B6 | 1.61 |
| B7 | 0.80 |
| B8 | 0.57 |
| B9 | 0.33 |
| B10 | 0.57 and 0.571 |
| B11 | 0.29 |
| B12 | 0.72 |
| B13 | 1.33 |
| B14 | 1.18 |
| B15 | 0.76 |
| B16 | 0.48 |
| B17 | 0.47 |

Assay: Probe fluorescence ratio response to linoleic acid relative to ADIFAB2
Assay type: binding
Settings: response relative to ADIFAB2
How it was run: as §1

| Molecule | DR/DR LA |
| --- | --- |
| B1 | 1.47 |
| B2 | 0.40 |
| B3 | 0.75 |
| B4 | 0.38 |
| B5 | 1.15 |
| B6 | 1.75 |
| B7 | 0.36 |
| B8 | 0.57 |
| B9 | 0.59 |
| B10 | 0.60 and 0.604 |
| B11 | 0.33 |
| B12 | 0.74 |
| B13 | 0.61 |
| B14 | 1.16 |
| B15 | 0.66 |
| B16 | 0.56 |
| B17 | 0.61 |

Assay: Probe fluorescence ratio response to oleic acid relative to ADIFAB2
Assay type: binding
Settings: response relative to ADIFAB2
How it was run: as §1

| Molecule | DR/DR OA |
| --- | --- |
| B1 | 1.31 |
| B2 | 0.23 |
| B3 | 0.53 |
| B4 | 0.08 |
| B5 | 0.87 |
| B6 | 1.55 |
| B7 | 0.01 |
| B8 | 0.49 |
| B9 | 0.30 |
| B10 | 0.49 and 0.486 |
| B11 | 0.13 |
| B12 | 0.52 |
| B13 | 0.41 |
| B14 | 1.16 |
| B15 | 0.46 |
| B16 | 0.44 |
| B17 | 0.44 |

Assay: Probe fluorescence ratio response to palmitic acid relative to ADIFAB2
Assay type: binding
Settings: response relative to ADIFAB2
How it was run: as §1

| Molecule | DR/DR PA |
| --- | --- |
| B1 | 1.04 |
| B2 | 0.34 |
| B3 | 0.41 |
| B4 | 0.21 |
| B5 | 0.62 |
| B6 | 1.10 |
| B7 | 0.17 |
| B8 | 0.33 |
| B9 | 0.18 |
| B10 | 0.48 and 0.482 |
| B11 | 0.18 |
| B12 | 0.38 |
| B13 | 0.26 |
| B14 | 1.11 |
| B15 | 0.35 |
| B16 | 0.36 |
| B17 | 0.30 |
